Patent US20070020327A1
Where two headings read alike, the source gives them in different places. One block for each binder: values may come before it.

Experiments:
[1] = target: HLA-A*0201 (purified HLA class I molecule) (human); assay: competition with 125I-labelled standard peptide for purified HLA, gel filtration
HLA-A*0203 (human) = assay: as above; conditions: for binding affinity ratio: scale: ratio
HLA-A*0202 (human) = assay: as above
HLA-A*0201 (human) [2] = assay: as above; conditions: for binding affinity ratio: scale: ratio
HLA-A*0206 (human) = assay: as above
HLA-A*0201 (human) [3] = assay: competitive inhibition of 125I-labelled standard peptide binding to purified HLA, gel filtration
[4] = remark: other sources report otherwise
[5] = remark: other sources report otherwise, scale: ratio

Binder: LVHPQWVLTA (modifications not checked) [PSA peptide … (position 50, 10 amino acids)]
binding affinity ratio (IC50 of standard peptide / IC50 of test peptide) [1]: 0.0001

Binder: LVHNLTKEL (modifications not checked) [PSM peptide … (position 473, 9 amino acids)]
binding affinity ratio (IC50 of standard peptide / IC50 of test peptide) [1]: 0.0001

Binder: YTKVVHYRKWI (modifications not checked) [Kallikrein 243 peptide …]
binding affinity ratio (IC50 of the standard peptide / IC50 of the test peptide) (HLA-A*0202 (human)): -0.0001
binding affinity ratio (IC50 of the standard peptide / IC50 of the test peptide) (HLA-A*0201 (human) [2]): 0.0001
binding affinity ratio (IC50 of the standard peptide / IC50 of the test peptide) (HLA-A*0206 (human)): -0.0001

Binder: LVHPQWVLT (modifications not checked) [Kallikrein (hK2) peptide … (position 54, 9 amino acids)]
binding affinity ratio (IC50 of standard peptide / IC50 of test peptide) [1]: 0.0001

Binder: YTKVVHYRKWI (modifications not checked) [PSA 239 peptide …]
binding affinity ratio (IC50 of the standard peptide / IC50 of the test peptide) (HLA-A*0202 (human)): -0.0001
binding affinity ratio (IC50 of the standard peptide / IC50 of the test peptide) (HLA-A*0201 (human) [2]): 0.0001
binding affinity ratio (IC50 of the standard peptide / IC50 of the test peptide) (HLA-A*0206 (human)): -0.0001

Binder: SVGCTGAVPLI (modifications not checked) [Kallikrein (hK2) peptide … (position 11, 11 amino acids)]
binding affinity ratio (HLA-A*0202 (human); [5]): 0.001
binding affinity ratio (HLA-A*0201 (human) [2]; [4]): 0.01

Binder: KITDVVKVLGL (modifications not checked) [… (Kallikrein, position 131)]
binding affinity ratio (ratio to standard peptide) (HLA-A*0201 (human) [3]; [4]): 0.0002

Binder: LVHPQWVLT (modifications not checked) [PSA peptide … (position 50, 9 amino acids)]
binding affinity ratio (IC50 of standard peptide / IC50 of test peptide) [1]: 0.0001

Binder: NAQLAGAKGV (modifications not checked) [PSM peptide … (position 216, 10 amino acids)]
binding affinity ratio (IC50 of standard peptide / IC50 of test peptide) [1]: 0.0002

Binder: ALFDIESKV (modifications not checked) [peptide 1129.08 (PSM.711)]
IC50 (HLA-A*0202 (human); [4]): 0.7 nM

Binder: MALDVYNGLL (modifications not checked) [PAP peptide … (position 298, 10 amino acids)]
binding affinity ratio (IC50 of standard peptide / IC50 of test peptide) [1]: 0.001

Binder: KTHPNYISI (modifications not checked)
binding affinity ratio (ratio to standard peptide) (HLA-A*0201 (human) [3]): 0.0002

Binder: STCSGDSGGPL (modifications not checked) [PSA peptide … (position 203, 11 amino acids)]
binding affinity ratio (HLA-A*0203 (human); [4]): 0.0092
binding affinity ratio (HLA-A*0201 (human) [2]; [4]): 0.0005
binding affinity ratio (HLA-A*0206 (human); [5]): 0.0002

Binder: MLLRLSEPAEL (modifications not checked) [PSA peptide … (position 118, 11 amino acids)]
binding affinity ratio (IC50 of standard peptide / IC50 of test peptide) [1]: 0.14

Binder: KLIMYSAHDT (modifications not checked) [… (PAP, position 282)]
binding affinity ratio (ratio to standard peptide) (HLA-A*0201 (human) [3]): 0.0002

Binder: MMNDQLMFL (modifications not checked) [peptide 1126.01 (PSM.663)]
IC50 (HLA-A*0203 (human)): 1.7 nM
IC50 (HLA-A*0202 (human)): 0.8 nM
IC50 (HLA-A*0206 (human)): 7.6 nM

Binder: LVHPQWVL (modifications not checked) [PSA peptide LVHPQWVL (position 50, 8 amino acids)]
binding affinity ratio (IC50 of standard peptide / IC50 of test peptide) [1]: 0.0001

Binder: FLTLSVTWIGV (modifications not checked) [peptide 1419.27 (PSA.3.V11)]
IC50 (HLA-A*0203 (human)): 18 nM
IC50 (HLA-A*0202 (human)): 3 nM
IC50 (HLA-A*0201 (human) [2]): 6.8 nM
IC50 (HLA-A*0206 (human)): 65 nM

Binder: NLNGAGDPLT (modifications not checked) [PSM peptide … (position 260, 10 amino acids)]
binding affinity ratio (IC50 of standard peptide / IC50 of test peptide) [1]: 0.0002

More lines, now with the values ahead:

binding affinity ratio (IC50 of the standard peptide / IC50 of the test peptide) (HLA-A*0203 (human)): 0.0003
binding affinity ratio (IC50 of the standard peptide / IC50 of the test peptide) (HLA-A*0202 (human)): 0.0009
binding affinity ratio (IC50 of the standard peptide / IC50 of the test peptide) (HLA-A*0201 (human) [2]): -0.0001
binding affinity ratio (IC50 of the standard peptide / IC50 of the test peptide) (HLA-A*0206 (human)): 0.0003
Binder: YASGWGSI (modifications not checked) [Kallikrein 153 peptide YASGWGSI]

binding affinity ratio (IC50 of standard peptide / IC50 of test peptide) (HLA-A*0203 (human); [4]): 0.04
Binder: NMSLLKHQSL (modifications not checked) [Kallikrein 102 …]

binding affinity ratio (IC50 of standard peptide / IC50 of test peptide) [1]: 0.0001
Binder: LVHPQWVLTA (modifications not checked) [Kallikrein (hK2) peptide … (position 54, 10 amino acids)]

binding affinity ratio (ratio to standard peptide) (HLA-A*0201 (human) [3]): 0.004
Binder: KLRELSELSL (modifications not checked) [… (PAP, position 234)]

binding affinity ratio (ratio to standard peptide) (HLA-A*0201 (human) [3]): 0.0003
Binder: KLLEKMGGSA (modifications not checked) [… (PSM, position 304)]

IC50 (HLA-A*0203 (human)): 5 nM
IC50 (HLA-A*0202 (human)): 0.4 nM
IC50 (HLA-A*0201 (human) [2]): 26 nM
IC50 (HLA-A*0206 (human)): 57 nM
Binder: VLAGGFFLV (modifications not checked) [peptide 1389.20 (PSM.27.V9)]

binding affinity ratio (IC50 of standard peptide / IC50 of test peptide) [1]: 0.0001
Binder: LVHPQWVLTAA (modifications not checked) [PSA peptide … (position 50, 11 amino acids)]

binding affinity ratio (ratio to standard peptide) (HLA-A*0201 (human) [3]): 0.0002
Binder: KTYSVSFDSL (modifications not checked) [… (PSM, position 623)]

IC50 (HLA-A*0202 (human); [4]): 0.2 nM
Binder: VLAGGFFLL (modifications not checked) [peptide 1126.10 (PSM.27)]

binding affinity ratio (ratio to standard peptide) (HLA-A*0201 (human) [3]): 0.0001
Binder: KTHPNYISII (modifications not checked)

IC50 (HLA-A*0203 (human); [4]): 9.5 nM
Binder: KLQCVDLHVV (modifications not checked) [peptide 1419.24 (PSA.166.V10)]

binding affinity ratio (IC50 of standard peptide / IC50 of test peptide) [1]: 0.0001
Binder: LVHPQWVL (modifications not checked) [Kallikrein (hK2) peptide LVHPQWVL (position 54, 8 amino acids)]

binding affinity ratio (IC50 of standard peptide / IC50 of test peptide) [1, 4]: 0.002
Binder: LVLSIALSV (modifications not checked) [Kallikrein (hK2) peptide … (position 4, 9 amino acids)]

binding affinity ratio (IC50 of the standard peptide / IC50 of the test peptide) (HLA-A*0203 (human)): 0.0003
binding affinity ratio (IC50 of the standard peptide / IC50 of the test peptide) (HLA-A*0202 (human)): 0.0009
binding affinity ratio (IC50 of the standard peptide / IC50 of the test peptide) (HLA-A*0201 (human) [2]): -0.0001
binding affinity ratio (IC50 of the standard peptide / IC50 of the test peptide) (HLA-A*0206 (human)): 0.0003
Binder: YASGWGSI (modifications not checked) [PSA 149 peptide YASGWGSI]

binding affinity ratio (IC50 of standard peptide / IC50 of test peptide) (HLA-A*0203 (human)): 0.0017
binding affinity ratio (IC50 of standard peptide / IC50 of test peptide) (HLA-A*0202 (human)): 0.0006
binding affinity ratio (IC50 of standard peptide / IC50 of test peptide) (HLA-A*0201 (human) [2]): 0.0002
binding affinity ratio (IC50 of standard peptide / IC50 of test peptide) (HLA-A*0206 (human)): -0.0001
Binder: PAKITDVVKVL (modifications not checked)

IC50 (HLA-A*0202 (human)): 0.4 nM
IC50 (HLA-A*0201 (human) [2]): 64 nM
Binder: LMYSLVHNL (modifications not checked) [peptide 1126.14 (PSM.469)]

binding affinity ratio (IC50 of standard peptide / IC50 of test peptide) (HLA-A*0202 (human); [4]): 0.01
binding affinity ratio (IC50 of standard peptide / IC50 of test peptide) (HLA-A*0206 (human); [4]): 0.0006
Binder: PAKITDVVKV (modifications not checked)

binding affinity ratio (IC50 of standard peptide / IC50 of test peptide) [1]: 0.0001
Binder: NLLHETDSA (modifications not checked) [PSM peptide … (position 3, 9 amino acids)]

binding affinity ratio (ratio to standard peptide) (HLA-A*0201 (human) [3]): 0.0001
Binder: KINCSGKIVI (modifications not checked) [… (PSM, position 193)]

binding affinity ratio (ratio to standard peptide) (HLA-A*0201 (human) [3]): 0.0002
Binder: KIVIARYGKV (modifications not checked) [… (PSM, position 199)]

binding affinity ratio (IC50 of standard peptide / IC50 of test peptide) [1]: 0.0002
Binder: MTKLRELSEL (modifications not checked) [PAP peptide … (position 232, 10 amino acids)]

binding affinity ratio (HLA-A*0203 (human)): 0.0009
binding affinity ratio (HLA-A*0201 (human) [2]): 0.0001
Binder: KVLGLPTQEPA (modifications not checked) [… (Kallikrein, position 137, 11 amino acids)]

binding affinity ratio (IC50 of standard peptide / IC50 of test peptide) [1]: 0.0001
Binder: LVHPQWVLTAA (modifications not checked) [Kallikrein (hK2) peptide … (position 54, 11 amino acids)]
